Experimental data taken from article PMC11629553, “Mechanistic diversity and functional roles define the substrate specificity and ligand binding of bacterial PGP phosphatases” (The Journal of Biological Chemistry, 2024).
Read-outs that look alike come from different tables or passages of the source.

What was measured:
Assay type in all cases: biochemical, Escherichia coli
[1] = substrate: CCCCCCCC/C=C\CCCCCCCC(=O)OC[C@@H](O)COP(=O)(O)O; assay: phosphate release kinetics, surface dilution model (Km)
[2] = substrate: O=CC(O)COP(=O)(O)O; assay: phosphate release kinetics, Michaelis-Menten (Km); details: Mg2+
[3] = substrate: O=P(O)(O)OCC(O)CO; assay: phosphate release kinetics, Michaelis-Menten (Km); details: Mg2+

| Protein | Km [1] [µM] | Km ([1]; Mg2+) [µM] | Km [2] [µM] | Km [3] [µM] |
| --- | --- | --- | --- | --- |
| PgpB (Escherichia coli K-12) (protein, N-terminal His-tagged PgpB purified in DDM) RSIARRTAVGAALLLVMPVAVWISGWRWQPGEQSWLLKAAFWVTETVTQPWGVITHLILFGWFLWCLRFRIKAAFVLFAILAAAILVGQGVKSWIKDKVQEPRPFVIWLEKTHHIPVDEFYTLKRAERGNLVKEQLAEEKNIPQYLRSHWQKETGFAFPSGHTMFAASWALLAVGLLWPRRRTLTIAILLVWATGVMGSRLLLGMHWPRDLVVATLISWALVAVATWLAQRICGPLTPPAEENREIAQREQES | 179.6 | – | – | – |
| PgpA (Escherichia coli K-12) (protein, N-terminal His-tagged PgpA purified in DDM) MTILPRHKDVAKSRLKMSNPWHLLAVGFGSGLSPIVPGTMGSLAAIPFWYLMTFLPWQLYSLVVMLGICIGVYLCHQTAKDMGVHDHGSIVWDEFIGMWITLMALPTNDWQWVAAGFVIFRILDMWKPWPIRWFDRNVHGGMGIMIDDIVAGVISAGILYFIGHHWPLGILS | – | 83.8 | 765 | 327 |
| PgpC (Escherichia coli K-12) (protein, N-terminal His-tagged PgpC purified in DDM) MATHERRVVFFDLDGTLHQQDMFGSFLRYLLRRQPLNALLVLPLLPIIAIALLIKGRAARWPMSLLLWGCTFGHSEARLQTLQADFVRWFRDNVTAFPLVQERLTTYLLSSDADIWLITGSPQPLVEAVYFDTPWLPRVNLIASQIQRGYGGWVLTMRCLGHEKVAQLERKIGTPLRLYSGYSDSNQDNPLLYFCQHRWRVTPRGELQQLE | – | 190.2 | – | – |
